Here are results for one molecule from PMC11383277 (bioRxiv, 2024).

For the test, the target named is human NaV1.8 alpha-subunit (human, UniProt Q9Y5Y9 1-1956, M1713V). The test is described as follows: cryo-EM structure.

B1: Protoxin-I (peptide)
peptide: ECRYWLGGCSAGQTCCKHLVCSRRHGWCVWDGTFS
Regarding B1, the binding result was “binds”.
